Patent US20050089961A1 (NEUROMED PHARMACEUTICALS, published 2005)

Molecular target: rat α1B+β1b calcium channel (N-type calcium channel) (rat, UniProt Q02294 1-2336; P54283 1-597)
Assay: cell-based or functional assay

Chain of rat α1B+β1b calcium channel (N-type calcium channel) (Q02294 whole entry, chain 1 of 2): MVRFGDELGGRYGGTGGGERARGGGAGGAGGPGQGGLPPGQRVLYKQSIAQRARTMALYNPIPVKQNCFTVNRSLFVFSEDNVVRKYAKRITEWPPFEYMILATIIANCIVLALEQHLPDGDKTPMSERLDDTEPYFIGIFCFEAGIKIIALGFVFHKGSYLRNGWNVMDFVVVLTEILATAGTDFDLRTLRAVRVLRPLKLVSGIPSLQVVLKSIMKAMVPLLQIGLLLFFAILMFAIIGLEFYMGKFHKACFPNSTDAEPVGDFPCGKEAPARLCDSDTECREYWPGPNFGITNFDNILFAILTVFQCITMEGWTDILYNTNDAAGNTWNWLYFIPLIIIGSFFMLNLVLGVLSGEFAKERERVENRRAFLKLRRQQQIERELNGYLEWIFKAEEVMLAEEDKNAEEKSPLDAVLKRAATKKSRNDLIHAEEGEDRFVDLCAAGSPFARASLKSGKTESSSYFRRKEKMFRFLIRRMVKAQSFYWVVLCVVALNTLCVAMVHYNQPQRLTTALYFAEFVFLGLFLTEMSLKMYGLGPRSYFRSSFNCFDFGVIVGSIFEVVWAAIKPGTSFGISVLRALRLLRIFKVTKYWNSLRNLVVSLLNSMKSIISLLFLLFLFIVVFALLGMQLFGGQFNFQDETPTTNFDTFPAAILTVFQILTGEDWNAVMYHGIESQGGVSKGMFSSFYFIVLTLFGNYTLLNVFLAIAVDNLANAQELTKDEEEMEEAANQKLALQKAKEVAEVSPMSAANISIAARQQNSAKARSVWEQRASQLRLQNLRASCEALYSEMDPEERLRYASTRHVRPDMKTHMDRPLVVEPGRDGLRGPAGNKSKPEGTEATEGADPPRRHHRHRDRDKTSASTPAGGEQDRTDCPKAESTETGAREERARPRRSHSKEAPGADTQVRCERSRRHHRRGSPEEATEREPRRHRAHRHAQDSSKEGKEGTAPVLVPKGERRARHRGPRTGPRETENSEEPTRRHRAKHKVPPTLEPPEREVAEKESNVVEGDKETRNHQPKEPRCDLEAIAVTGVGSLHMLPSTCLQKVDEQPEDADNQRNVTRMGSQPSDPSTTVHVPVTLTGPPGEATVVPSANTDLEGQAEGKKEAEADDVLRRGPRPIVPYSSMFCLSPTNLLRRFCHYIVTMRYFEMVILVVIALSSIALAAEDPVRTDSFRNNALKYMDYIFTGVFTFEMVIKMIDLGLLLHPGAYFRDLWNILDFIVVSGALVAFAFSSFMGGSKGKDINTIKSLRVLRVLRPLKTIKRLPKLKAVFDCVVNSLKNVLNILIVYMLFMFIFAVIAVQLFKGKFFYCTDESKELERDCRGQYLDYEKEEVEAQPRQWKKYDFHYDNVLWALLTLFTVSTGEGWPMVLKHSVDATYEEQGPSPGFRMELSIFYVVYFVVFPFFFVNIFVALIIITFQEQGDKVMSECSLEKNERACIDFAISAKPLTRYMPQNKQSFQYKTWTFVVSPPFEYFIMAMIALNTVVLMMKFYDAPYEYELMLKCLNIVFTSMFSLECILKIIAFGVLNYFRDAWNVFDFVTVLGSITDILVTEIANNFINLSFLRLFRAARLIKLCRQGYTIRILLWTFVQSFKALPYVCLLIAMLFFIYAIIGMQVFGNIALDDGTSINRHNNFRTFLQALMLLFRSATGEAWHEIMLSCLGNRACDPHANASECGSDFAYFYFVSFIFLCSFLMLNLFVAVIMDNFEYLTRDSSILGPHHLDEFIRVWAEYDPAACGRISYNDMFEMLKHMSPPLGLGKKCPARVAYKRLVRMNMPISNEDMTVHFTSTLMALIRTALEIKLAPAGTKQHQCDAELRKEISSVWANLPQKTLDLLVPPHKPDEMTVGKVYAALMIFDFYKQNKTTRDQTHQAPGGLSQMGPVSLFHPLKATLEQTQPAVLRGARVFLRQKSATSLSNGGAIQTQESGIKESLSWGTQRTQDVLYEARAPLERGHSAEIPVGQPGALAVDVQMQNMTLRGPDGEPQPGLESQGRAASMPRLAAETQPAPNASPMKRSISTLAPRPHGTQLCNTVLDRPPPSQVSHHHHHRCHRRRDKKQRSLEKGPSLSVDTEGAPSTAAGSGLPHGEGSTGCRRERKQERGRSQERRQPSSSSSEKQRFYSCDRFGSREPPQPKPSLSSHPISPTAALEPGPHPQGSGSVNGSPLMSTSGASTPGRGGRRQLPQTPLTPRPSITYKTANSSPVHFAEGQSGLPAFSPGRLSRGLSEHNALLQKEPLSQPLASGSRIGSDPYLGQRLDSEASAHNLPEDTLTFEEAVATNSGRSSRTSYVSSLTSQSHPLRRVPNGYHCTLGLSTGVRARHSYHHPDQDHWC
Chain of rat α1B+β1b calcium channel (N-type calcium channel) (P54283 whole entry, chain 2 of 2): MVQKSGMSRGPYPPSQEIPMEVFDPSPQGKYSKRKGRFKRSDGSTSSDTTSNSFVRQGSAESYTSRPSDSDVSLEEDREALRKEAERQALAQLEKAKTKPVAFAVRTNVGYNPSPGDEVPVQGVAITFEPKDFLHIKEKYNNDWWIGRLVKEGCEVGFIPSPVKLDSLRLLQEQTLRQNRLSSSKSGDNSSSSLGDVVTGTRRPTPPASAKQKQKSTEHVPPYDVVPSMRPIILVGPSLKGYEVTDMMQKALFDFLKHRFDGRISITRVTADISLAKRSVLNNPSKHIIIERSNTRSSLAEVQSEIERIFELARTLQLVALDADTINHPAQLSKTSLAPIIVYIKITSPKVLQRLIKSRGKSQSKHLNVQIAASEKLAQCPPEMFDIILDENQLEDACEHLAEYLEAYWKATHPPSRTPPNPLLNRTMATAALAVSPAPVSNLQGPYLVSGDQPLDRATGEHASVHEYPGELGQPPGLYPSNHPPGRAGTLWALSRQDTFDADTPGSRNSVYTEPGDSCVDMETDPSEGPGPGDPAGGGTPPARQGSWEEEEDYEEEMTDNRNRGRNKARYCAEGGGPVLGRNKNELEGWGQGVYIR

B1: full-length chicken α2δ-1 calcium channel subunit (other)
chain: HSSEGPFPSPTTIKSWVDKMQEDLITLARTASGVEQLAAIYLKNKDLYTVEANNPRQLVEIAARDIEKLLSNRSKALVRLAKEAEKYQASHQWRDEFGNNDIIYYNAKDDQNDPEKNDTESGSQRIRPVFEEDPVFRRQTSYQHAAVHIPTDIYEGSTIVLNELNWTAALDDVFKRNREEDPTLLWQVFGSATGLARYYPASPWVDNSRTPNKIDLYDVRRRPWYIQGAASPKDMLILVDASGSVSGLTLKLIRTSVIEMLETLSDDDFVNVVSFNNNAQNVSCFNHLVQANVRNKKKLKEAVDKISAKGITDYKKGFSYAFEQLLNHSVSRANCNKIIMLFTDGGEERAQEIFHKYNEDKKVRVFTFSVGQHNYDKGPIQWMACENKGYYYEIPSIGAIRINTQEYLDVLGRPMVLAGEKAKQVQWTNVYLDALELGLVITGTLPVFNLTKEQNGKINQLILGVMGVDVSLEDIKKLTPRFTLCPNGYYFAIDPNGYVLLHPNLQPKNPKSQEPVTLDFLDAELENDIKVEIRKKMIDGESGEKTFETLVKSQDERYIDKGNRTYTWTAVNGTDYSLALVLPSYSFYYIKAKIEEPITQARLEIKKDSETLKIDHFDEAGYTFIAPREYCTDVKKSENNTEFLLNFNEFIDRNTPSSPSCNTDMVIRVLLDAGFTNELAQNYWSKLYLDGVVAQFVVTDGGITRVFPKRAGEDWLENAETYEVSFYKRSLDNDNYIFTAPYYNKSGANSYESGIMVSKAVEITINGKLLKPAVVGIKIDAMKWMENFTTTTIKSLCNSEICGCEKNSMHVDCVILDDGGFLLMSNRDEYTHQIGRFFGEIDPGLMRNLINMSLYAFNKSYDYQSVCDPEEEPKQGAGLRSAYVPTIADILQLGWWASAAAWSILQQLFLSLTFPRFLEAADMEDDDFSTALPKTSCITEQTQYFFENDDKSFIGIVDCINCSRLYHAEKISNTNLVFIISDSQLLCRSCDPKPLMQAEKPDEGPNPCEMVKQPRYRKGPDVCFDEAKQEDSADCGGASGLSPSLWSMVGIQLVLLWLLSGSRHYQL
current density (Ipeak/cell capacitance), whole-cell patch clamp, fold increase on coexpression: ~10 fold
